Test results reported in the supplement of paper PMC10065799, “High-throughput profiling of sequence recognition by tyrosine kinases and SH2 domains using bacterial peptide display” (eLife, 2023).

Assays:
c-Src SH2 = experiment: SH2 binding enrichment of the phosphorylated peptide, bacterial display (enrichment ratio); higher = better substrate or ligand; peptides without Tyr show the background
Grb2 SH2 = Grb2 SH2 (UniProt P62993); experiment: as above
SHP2-C SH2 = experiment: as above
Fer (mouse) = experiment: phosphorylation enrichment, bacterial display (enrichment ratio); higher = better substrate or ligand; peptides without Tyr show the background
FGFR1 = FGFR1 (UniProt P11362); experiment: as above
Chain of FGFR1 (P11362 whole entry, looked up): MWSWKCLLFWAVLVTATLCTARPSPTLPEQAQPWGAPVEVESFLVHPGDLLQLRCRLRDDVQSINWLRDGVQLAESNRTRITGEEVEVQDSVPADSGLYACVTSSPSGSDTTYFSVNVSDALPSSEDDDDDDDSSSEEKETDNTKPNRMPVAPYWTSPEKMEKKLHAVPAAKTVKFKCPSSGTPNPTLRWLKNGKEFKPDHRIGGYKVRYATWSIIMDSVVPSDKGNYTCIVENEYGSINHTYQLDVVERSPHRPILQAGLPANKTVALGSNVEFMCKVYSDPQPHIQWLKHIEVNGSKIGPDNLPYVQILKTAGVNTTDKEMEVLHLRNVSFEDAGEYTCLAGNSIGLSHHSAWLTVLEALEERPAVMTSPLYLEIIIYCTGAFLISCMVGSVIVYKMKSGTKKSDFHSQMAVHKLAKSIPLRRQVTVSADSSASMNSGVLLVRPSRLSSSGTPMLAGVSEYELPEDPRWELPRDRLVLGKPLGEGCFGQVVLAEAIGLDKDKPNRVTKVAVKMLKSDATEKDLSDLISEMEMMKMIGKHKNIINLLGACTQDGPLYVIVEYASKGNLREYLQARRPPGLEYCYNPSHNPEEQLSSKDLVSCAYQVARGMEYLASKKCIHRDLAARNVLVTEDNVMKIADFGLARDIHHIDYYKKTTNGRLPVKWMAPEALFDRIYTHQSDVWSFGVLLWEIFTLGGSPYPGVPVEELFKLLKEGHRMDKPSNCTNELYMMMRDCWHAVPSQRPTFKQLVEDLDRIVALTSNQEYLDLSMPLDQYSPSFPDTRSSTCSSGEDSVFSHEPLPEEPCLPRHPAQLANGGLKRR

Fes = Fes (UniProt P07332); experiment: as above
Chain of Fes (P07332 whole entry, looked up): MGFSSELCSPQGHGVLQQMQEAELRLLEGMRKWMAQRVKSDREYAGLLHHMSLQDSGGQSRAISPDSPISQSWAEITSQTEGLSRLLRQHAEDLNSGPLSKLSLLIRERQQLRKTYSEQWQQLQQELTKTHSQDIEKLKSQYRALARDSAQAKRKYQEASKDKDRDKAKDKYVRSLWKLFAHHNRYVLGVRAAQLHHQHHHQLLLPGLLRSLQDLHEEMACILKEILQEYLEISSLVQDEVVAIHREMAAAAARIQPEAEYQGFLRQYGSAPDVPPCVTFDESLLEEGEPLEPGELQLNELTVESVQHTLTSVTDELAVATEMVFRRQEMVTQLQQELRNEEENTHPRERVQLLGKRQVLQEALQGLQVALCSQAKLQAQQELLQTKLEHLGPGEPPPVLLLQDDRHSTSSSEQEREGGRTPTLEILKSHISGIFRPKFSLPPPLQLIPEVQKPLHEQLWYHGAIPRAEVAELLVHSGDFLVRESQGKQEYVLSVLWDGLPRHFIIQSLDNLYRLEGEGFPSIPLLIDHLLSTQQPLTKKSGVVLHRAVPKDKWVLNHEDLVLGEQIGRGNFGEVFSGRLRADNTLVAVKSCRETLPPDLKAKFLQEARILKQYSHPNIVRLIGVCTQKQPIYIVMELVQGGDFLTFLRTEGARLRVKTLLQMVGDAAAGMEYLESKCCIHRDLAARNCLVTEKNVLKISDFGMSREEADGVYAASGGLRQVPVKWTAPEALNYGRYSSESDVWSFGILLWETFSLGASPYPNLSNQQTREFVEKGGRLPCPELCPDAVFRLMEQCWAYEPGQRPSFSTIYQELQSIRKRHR

EPHB2 = EPHB2 (UniProt P29323); experiment: as above
AncSZ = experiment: as above
Fyn = Fyn (UniProt P06241); experiment: as above
MERTK = MERTK (UniProt Q12866); experiment: as above
FGFR3 = FGFR3 (UniProt P22607); experiment: as above
Chain of FGFR3 (P22607 whole entry, looked up): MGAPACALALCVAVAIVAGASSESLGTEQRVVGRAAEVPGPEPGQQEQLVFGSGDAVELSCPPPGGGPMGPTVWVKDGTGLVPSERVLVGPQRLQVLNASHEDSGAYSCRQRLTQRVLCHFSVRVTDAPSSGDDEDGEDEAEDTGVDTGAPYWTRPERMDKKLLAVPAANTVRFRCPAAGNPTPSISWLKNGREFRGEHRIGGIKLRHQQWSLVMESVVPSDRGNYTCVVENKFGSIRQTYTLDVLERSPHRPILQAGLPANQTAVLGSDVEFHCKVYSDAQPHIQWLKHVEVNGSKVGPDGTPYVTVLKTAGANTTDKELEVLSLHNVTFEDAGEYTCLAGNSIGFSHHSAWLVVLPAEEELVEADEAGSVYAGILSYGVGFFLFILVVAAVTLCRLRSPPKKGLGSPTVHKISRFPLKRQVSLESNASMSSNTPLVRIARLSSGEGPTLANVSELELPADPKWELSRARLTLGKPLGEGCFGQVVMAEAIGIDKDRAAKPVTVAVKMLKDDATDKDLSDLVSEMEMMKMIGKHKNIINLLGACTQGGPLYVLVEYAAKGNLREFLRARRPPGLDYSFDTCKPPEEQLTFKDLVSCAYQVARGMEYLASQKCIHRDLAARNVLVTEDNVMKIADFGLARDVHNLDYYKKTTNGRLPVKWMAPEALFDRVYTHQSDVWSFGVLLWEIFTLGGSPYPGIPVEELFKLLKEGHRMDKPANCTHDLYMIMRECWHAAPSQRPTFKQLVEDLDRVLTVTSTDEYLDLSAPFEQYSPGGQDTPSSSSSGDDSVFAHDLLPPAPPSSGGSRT

c-Abl (mouse) = experiment: as above
EPHB1 = EPHB1 (UniProt P54762); experiment: as above
Chain of EPHB1 (P54762 whole entry, looked up): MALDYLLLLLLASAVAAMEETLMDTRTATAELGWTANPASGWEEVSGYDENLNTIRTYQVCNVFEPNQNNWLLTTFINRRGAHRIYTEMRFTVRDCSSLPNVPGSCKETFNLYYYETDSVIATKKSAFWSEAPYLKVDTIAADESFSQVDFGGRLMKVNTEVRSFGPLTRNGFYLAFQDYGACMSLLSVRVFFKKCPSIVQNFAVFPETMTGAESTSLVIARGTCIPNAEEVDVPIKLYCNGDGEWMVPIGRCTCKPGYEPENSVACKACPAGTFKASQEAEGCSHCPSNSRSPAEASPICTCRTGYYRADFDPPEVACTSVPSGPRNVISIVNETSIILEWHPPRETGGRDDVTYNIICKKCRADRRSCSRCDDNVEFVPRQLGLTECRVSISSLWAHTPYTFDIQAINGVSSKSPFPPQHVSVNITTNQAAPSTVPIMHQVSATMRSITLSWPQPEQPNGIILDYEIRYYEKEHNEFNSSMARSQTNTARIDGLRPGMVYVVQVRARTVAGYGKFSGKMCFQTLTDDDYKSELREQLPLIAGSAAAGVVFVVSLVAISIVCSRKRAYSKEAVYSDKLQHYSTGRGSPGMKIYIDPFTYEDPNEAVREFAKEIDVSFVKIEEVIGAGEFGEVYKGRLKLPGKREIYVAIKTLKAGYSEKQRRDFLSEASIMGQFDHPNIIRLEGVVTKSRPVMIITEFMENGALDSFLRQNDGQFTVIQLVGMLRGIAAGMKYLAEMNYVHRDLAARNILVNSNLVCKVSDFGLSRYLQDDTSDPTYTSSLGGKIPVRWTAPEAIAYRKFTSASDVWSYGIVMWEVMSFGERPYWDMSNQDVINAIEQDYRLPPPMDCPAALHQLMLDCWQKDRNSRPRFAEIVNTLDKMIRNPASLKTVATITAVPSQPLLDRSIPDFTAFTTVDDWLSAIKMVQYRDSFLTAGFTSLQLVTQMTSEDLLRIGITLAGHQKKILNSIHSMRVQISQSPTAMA

c-Src = experiment: as above
Jak2 = Jak2 (UniProt O60674); experiment: as above
Chain of Jak2 (O60674 whole entry, looked up): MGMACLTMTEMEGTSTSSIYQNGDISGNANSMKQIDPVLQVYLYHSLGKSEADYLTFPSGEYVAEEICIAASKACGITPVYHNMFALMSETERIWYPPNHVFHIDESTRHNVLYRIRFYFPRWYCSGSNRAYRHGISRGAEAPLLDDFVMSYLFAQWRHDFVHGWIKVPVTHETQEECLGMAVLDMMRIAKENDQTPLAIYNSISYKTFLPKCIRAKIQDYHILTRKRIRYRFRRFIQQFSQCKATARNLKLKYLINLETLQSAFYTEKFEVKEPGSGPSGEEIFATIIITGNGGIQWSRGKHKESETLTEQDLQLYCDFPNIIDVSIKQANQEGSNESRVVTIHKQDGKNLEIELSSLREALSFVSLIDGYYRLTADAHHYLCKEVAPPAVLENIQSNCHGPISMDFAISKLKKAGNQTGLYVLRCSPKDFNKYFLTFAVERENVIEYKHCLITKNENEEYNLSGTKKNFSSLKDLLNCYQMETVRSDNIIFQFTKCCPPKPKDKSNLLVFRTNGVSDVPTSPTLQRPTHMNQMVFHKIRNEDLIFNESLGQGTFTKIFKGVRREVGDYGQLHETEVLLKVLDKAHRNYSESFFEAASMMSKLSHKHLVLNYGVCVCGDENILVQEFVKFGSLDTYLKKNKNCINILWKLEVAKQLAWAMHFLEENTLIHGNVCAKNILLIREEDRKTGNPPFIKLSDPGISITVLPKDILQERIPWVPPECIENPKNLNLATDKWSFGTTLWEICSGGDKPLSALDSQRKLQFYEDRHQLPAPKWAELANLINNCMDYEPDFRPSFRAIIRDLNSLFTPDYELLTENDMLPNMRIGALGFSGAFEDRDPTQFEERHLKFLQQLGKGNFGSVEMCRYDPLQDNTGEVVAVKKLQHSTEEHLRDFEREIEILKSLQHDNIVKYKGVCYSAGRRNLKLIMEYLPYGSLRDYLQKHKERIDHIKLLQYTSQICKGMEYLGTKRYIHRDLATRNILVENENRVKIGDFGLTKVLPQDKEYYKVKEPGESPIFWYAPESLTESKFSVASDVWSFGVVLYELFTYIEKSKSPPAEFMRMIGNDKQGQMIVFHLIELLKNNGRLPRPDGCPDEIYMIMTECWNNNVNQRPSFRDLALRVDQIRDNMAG

Hck = Hck (UniProt P08631); experiment: as above
Chain of Hck (P08631 whole entry, looked up, the tested form may be a part): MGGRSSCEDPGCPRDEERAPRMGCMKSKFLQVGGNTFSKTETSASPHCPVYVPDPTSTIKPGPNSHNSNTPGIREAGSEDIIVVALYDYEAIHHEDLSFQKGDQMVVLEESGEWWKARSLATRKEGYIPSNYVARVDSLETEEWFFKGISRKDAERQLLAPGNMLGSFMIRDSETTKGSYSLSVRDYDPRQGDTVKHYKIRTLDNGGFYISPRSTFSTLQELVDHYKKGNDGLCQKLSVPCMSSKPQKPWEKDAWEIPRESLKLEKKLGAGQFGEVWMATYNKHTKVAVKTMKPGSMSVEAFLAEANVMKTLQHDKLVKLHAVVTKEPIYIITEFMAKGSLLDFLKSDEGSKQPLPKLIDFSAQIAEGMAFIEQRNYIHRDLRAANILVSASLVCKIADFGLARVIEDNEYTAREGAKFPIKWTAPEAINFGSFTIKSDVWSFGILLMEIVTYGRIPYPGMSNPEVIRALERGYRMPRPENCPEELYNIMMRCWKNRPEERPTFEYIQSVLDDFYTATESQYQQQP
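Throughout, for SH2 binding enrichment of the phosphorylated peptide, bacterial display: peptide library displayed on the E. coli surface as eCPX fusions, selected cells deep-sequenced, score is each peptide's frequency after selection divided by its frequency in the input.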
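Throughout, for phosphorylation enrichment, bacterial display: 11-residue human phosphosite peptides and single-mutation variants displayed on the E. coli surface, counted by deep sequencing, each peptide's frequency after selection divided by its frequency in the unselected input library; frequency after pTyr selection over input frequency; kinase dosed for 20-30% of maximal phosphorylation in three min.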

Sequence | SH2 binding enrichment (c-Src SH2) | SH2 binding enrichment (Grb2 SH2) | SH2 binding enrichment (SHP2-C SH2) | phosphorylation enrichment (Fer (mouse)) | phosphorylation enrichment (FGFR1) | phosphorylation enrichment (Fes) | phosphorylation enrichment (EPHB2) | phosphorylation enrichment (AncSZ) | phosphorylation enrichment (Fyn) | phosphorylation enrichment (MERTK) | phosphorylation enrichment (FGFR3) | phosphorylation enrichment (c-Abl (mouse)) | phosphorylation enrichment (EPHB1) | phosphorylation enrichment (c-Src) | phosphorylation enrichment (Jak2) | phosphorylation enrichment (Hck)
PLKYLYPNIDR [STAT1_Y668_K673R] | 1.93 | 0.8 | 0.652 | 0.773 | 0.606 | 1.38 | 0.819 | 1.23 | 0.313 | 0.435 | 0.58 | 1.09 | 0.579 | 0.684 | 0.859 | 0.501
DRKRQCELLKL [KIF4B_Y684_Y684C] | 0.886 | 1.03 | 1.19 | 0.432 | 0.502 | 0.839 | 0.404 | 0.646 | 0.355 | 0.356 | 0.689 | 0.679 | 0.401 | 0.493 | 0.791 | 0.428
ERFSFYGMKAV [SLC15A2_Y61_YF] | 0.427 | 0.796 | 0.68 | 0.554 | 0.505 | 1.56 | 0.605 | 1.08 | 0.439 | 0.383 | 0.84 | 0.812 | 0.647 | 0.455 | 1.02 | 0.546
IYSGIYYKPES [L2HGDH_Y102_H98Y] | 1.28 | 1.01 | 1.22 | 15.8 | 8.71 | 9.02 | 15.9 | 3.08 | 10.2 | 11.5 | 7.9 | 23.7 | 14.1 | 7.25 | 7.32 | 9.78
LNNIIYRLERA [CUX2_Y1470_V1472L] | 0.557 | 1.62 | 1.84 | 0.812 | 0.907 | 1.37 | 1.37 | 1.67 | 2.59 | 1.1 | 1.19 | 1.31 | 1.24 | 3.45 | 1.27 | 1.01
NEKNIYGVPLM [BMPR2_Y247_R248G] | 0.478 | 0.808 | 0.785 | 3.26 | 0.511 | 0.717 | 1.7 | 0.616 | 4.93 | 2.83 | 0.624 | 19.6 | 0.431 | 3.45 | 0.627 | 6.04
KRTFEYEADKN [DENND2B_Y396] | 0.576 | 0.747 | 0.702 | 0.496 | 0.507 | 1.03 | 0.526 | 0.947 | 0.471 | 0.403 | 0.576 | 0.61 | 0.545 | 0.39 | 0.781 | 0.483
NTVDFYDLFGG [PTPN11_Y63_G60V_YF] | 0.665 | 0.997 | 0.812 | 0.953 | 0.458 | 0.951 | 0.618 | 1.06 | 4.46 | 1.23 | 0.644 | 0.576 | 0.576 | 2.56 | 0.926 | 3.05
QSGGQYSSQGL [TNNI3K_Y788_A785G] | 0.577 | 0.787 | 0.446 | 0.401 | 0.486 | 0.779 | 0.434 | 0.655 | 0.488 | 0.4 | 0.854 | 0.676 | 0.506 | 0.495 | 0.835 | 0.72
RLLVVYPWPQR [HBG2_Y36_T39P] | 1.46 | 1.8 | 1.67 | 0.512 | 0.527 | 1.7 | 0.606 | 0.97 | 0.489 | 0.917 | 0.703 | 0.494 | 0.443 | 0.456 | 0.617 | 0.518
VSSIPYGQPKQ [NEU1_Y251_G248S] | 0.339 | 0.79 | 0.575 | 0.324 | 0.39 | 0.605 | 0.345 | 0.549 | 0.338 | 0.425 | 0.41 | 0.464 | 0.555 | 0.447 | 0.844 | 0.493
VKGGAYFPVTV [MCCC2_Y145_YF] | 0.601 | 0.699 | 0.642 | 0.419 | 0.713 | 0.601 | 0.444 | 0.703 | 0.396 | 0.692 | 0.602 | 0.522 | 0.372 | 0.386 | 0.807 | 0.431
KAPPTYDNVLQ [CYP3A4_Y347_T349N] | 3.58 | 4.72 | 0.674 | 1.85 | 0.452 | 0.714 | 3.6 | 0.606 | 0.978 | 1.22 | 0.482 | 0.511 | 6.04 | 0.785 | 0.514 | 1.68
LEPGIYIPEDD [XPNPEP3_Y455_I450L] | 0.456 | 0.881 | 0.455 | 0.709 | 0.556 | 1.5 | 0.717 | 1.58 | 0.705 | 0.653 | 1.22 | 0.974 | 0.716 | 0.518 | 1.24 | 0.558
